Data reported in US20160333072A1.

Legend:
[1] = biological target: 4-1BB (CD137) on human MART-1 reactive T cell clones (TIL 209) (human) (UniProt Q07011); assay: cell-based or functional assay
[2] = biological target: human SLAMF6 (NTB-A) on human tumor infiltrating lymphocytes / T cells (human) (UniProt Q96DU3); assay: cell-based or functional assay
human SLAMF6 (NTB-A) on human tumor infiltrating lymphocytes / T cells (human), sequence (Q96DU3 22-332): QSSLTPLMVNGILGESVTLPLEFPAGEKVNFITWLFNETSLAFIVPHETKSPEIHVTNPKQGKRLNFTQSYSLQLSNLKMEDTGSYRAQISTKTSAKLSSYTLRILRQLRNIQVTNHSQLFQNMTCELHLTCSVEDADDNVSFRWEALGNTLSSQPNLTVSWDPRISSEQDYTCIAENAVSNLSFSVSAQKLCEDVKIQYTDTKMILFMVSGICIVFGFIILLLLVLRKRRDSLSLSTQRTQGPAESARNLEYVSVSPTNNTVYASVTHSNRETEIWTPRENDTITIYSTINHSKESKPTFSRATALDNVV

seSLAMF6 (SEQ ID NO: 3; Leu 28-Lys 225 of Q96DU3 fused with a polyhistidine tag at the C-terminus), sequence (Q96DU3 other isoform, or with tags, fused parts or gaps limits assumed): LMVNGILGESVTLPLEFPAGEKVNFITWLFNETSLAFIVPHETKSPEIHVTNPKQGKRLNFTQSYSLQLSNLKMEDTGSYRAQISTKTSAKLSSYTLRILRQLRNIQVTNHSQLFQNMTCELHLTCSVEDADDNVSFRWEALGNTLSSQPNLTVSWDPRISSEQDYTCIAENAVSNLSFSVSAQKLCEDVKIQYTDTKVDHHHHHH
4-1BB (CD137) on human MART-1 reactive T cell clones (TIL 209) (human), sequence (Q07011 24-255 limits assumed): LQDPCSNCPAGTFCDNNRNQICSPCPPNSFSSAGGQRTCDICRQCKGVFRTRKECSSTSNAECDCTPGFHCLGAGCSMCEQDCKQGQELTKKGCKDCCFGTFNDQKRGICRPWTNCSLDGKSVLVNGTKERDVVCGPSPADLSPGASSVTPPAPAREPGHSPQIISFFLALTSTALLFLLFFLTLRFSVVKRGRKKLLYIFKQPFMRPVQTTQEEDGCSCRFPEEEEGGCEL

| Substance | IFNγ secretion of TIL 209 co-cultured with mel624/4-1BBL in CM (mel624/moc: 4,120) [1] [pg/mL] | IFNγ secretion of TIL 209 co-cultured with mel624/4-1BBL with BSA (mel624/moc: 3,160) [1] [pg/mL] | CD107a surface expression (lytic degranulation) of human TILs 209 after REP with seSLAMF6 50 µg/ml, co-culture with 526mel [2] [fold] | ratio of cell death and apoptosis (PI / Annexin-V, flow cytometry) of melanoma-activated TILs 209 after IL-2 withdrawal, seSLAMF6 10 µg/ml [2] [%] | ratio of cell death on Day 7 (PI / annexin-V), TILs expanded by REP-IL-2, then seSLAMF6 50 µg/ml [2] [%] | ratio of cell death on Day 7 (PI / annexin-V), TILs expanded by REP-seSLAMF6, then seSLAMF6 50 µg/ml [2] [%] |
| --- | --- | --- | --- | --- | --- | --- |
| 4-1BBL expressed on transfected 624mel melanoma cells (mel624/4-1BBL) (from UniProt P41273 1-254) (ligand) | 8600 | 10500 | – | – | – | – |
| seSLAMF6 (SEQ ID NO: 3; Leu 28-Lys 225 of Q96DU3 fused with a polyhistidine tag at the C-terminus) (from UniProt Q96DU3 28-225) (receptor) | – | – | 2 | 4 | 7 to 11 | 7 to 11 |
